In paper PMC11432317, “Disulfide Bond Engineering of Soluble ACE2 for Thermal Stability Enhancement” (International Journal of Molecular Sciences, 2024) one finds Kd data, which are given here for one molecule.

This assay concerns the target T1, receptor binding domain (RBD) of the SARS-CoV-2 spike protein (residues 319-541) (SARS-CoV-2, UniProt P0DTC2 319-541).
T1 construct: also called spike RBD protein
Description: SPR. To be noted: both partners purified.

In general, Kd refers to a measure of binding affinity in units of concentration. A lower Kd goes with a tighter complex.

B1: I54C/K341C (M2) mutant sACE2-Fc (Fc fusion)
chain: QSTIEEQAKTFLDKFNHEAEDLFYQSSLASWNYNTNCTEENVQNMNNAGDKWSAFLKEQSTLAQMYPLQEIQNLTVKLQLQALQQNGSSVLSEDKSKRLNTILNTMSTIYSTGKVCNPDNPQECLLLEPGLNEIMANSLDYNERLWAWESWRSEVGKQLRPLYEEYVVLKNEMARANHYEDYGDYWRGDYEVNGVDGYDYSRGQLIEDVEHTFEEIKPLYEHLHAYVRAKLMNAYPSYISPIGCLPAHLLGDMWGRFWTNLYSLTVPFGQKPNIDVTDAMVDQAWDAQRIFKEAEKFFVSVGLPNMTQGFWENSMLTDPGNVQCAVCHPTAWDLGKGDFRILMCTKVTMDDFLTAHNEMGNIQYDMAYAAQPFLLRNGANEGFHEAVGEIMSLSAATPKHLKSIGLLSPDFQEDNETEINFLLKQALTIVGTLPFTYMLEKWRWMVFKGEIPKDQWMKKWWEMKREIVGVVEPVPHDETYCDPASLFHVSNDYSFIRYYTRTLYQFQFQEALCQAAKHEGPLHKCDISNSTEAGQKLFNMLRLGKSEPWTLALENVVGAKNMNVRPLLNYFEPLFTWLKDQNKNSFVGWSTDWSPYAD
notes: also called M2 sACE2-Fc
Molecule B1 came in with a Kd of 22.1 nM.
